Drawing on the Immune Epitope Database (IEDB), this text covers Kd and IC50 for 9 sequences.

By Kd is commonly meant the free concentration of one partner at which half of the binding sites on the other are occupied at equilibrium, for simple one-to-one binding. In general, IC50 refers to the concentration that inhibits the measured activity by half. Low values mean inhibition by little substance, high ones a need for much substance.

One assay concerns the target HLA-A*11:01. Kind of assay: IEDB peptide-MHC binding, purified MHC/direct/fluorescence; filed as Kd, often an IC50 or EC50 that approximates it; ≥ and ≤ were set here for values at or beyond the usual limits of such assays.
The target in assay [1] is HLA-A*03:01. Described as above.
The target in the next assay is HLA-C*14:02. Described as above.
For assay [2], the target named is HLA-B*35:01. Briefly: IEDB peptide-MHC binding, purified MHC/competitive/fluorescence; filed as Kd, often an IC50 or EC50 that approximates it; ≥ and ≤ were set here for values at or beyond the usual limits of such assays. Conditions: source organism: Francisella tularensis subsp. tularensis FSC198.
A further assay concerns the target HLA-B*08:01. Briefly: IEDB peptide-MHC binding, purified MHC/direct/fluorescence; filed as Kd, often an IC50 or EC50 that approximates it; ≥ and ≤ were set here for values at or beyond the usual limits of such assays.
Assay [3] deals with HLA-A*02:01. The description is as above.
Assay [4] addresses HLA-A*26:01. The assay is described as above.
The next assay has as its target HLA-B*58:01. The description is as above.
The target of assay [5] is HLA-B*07:02. Described as above.
Assay [6] deals with HLA-A*69:01. Described as above.
A further assay deals with HLA-B*40:01. The assay is described as above.
Assay [7] deals with HLA-A*01:01. The assay is described as above.
The target in another assay is HLA-B*27:05. Described as above.
The target in another assay is HLA-B*44:02. Described as above. Conditions: source organism: Vibrio cholerae.
Assay [8] addresses HLA-A*24:03. Described as above.
The target in a further assay is HLA-A*23:01. Kind of assay: IEDB peptide-MHC binding, purified MHC/competitive/fluorescence; filed as Kd, often an IC50 or EC50 that approximates it; ≥ and ≤ were set here for values at or beyond the usual limits of such assays. Conditions: source organism: Streptococcus pneumoniae TIGR4.
The target of a further assay is HLA-B*57:01. The assay is described as above. The settings on record: source organism: Streptococcus pneumoniae TIGR4.
The target of the next assay is HLA-B*27:03. The description is as above. The settings on record: source organism: Streptococcus pneumoniae TIGR4.
Assay [9] deals with HLA-A*03:01. The description is as above. Conditions: source organism: Streptococcus pneumoniae TIGR4.
Another assay concerns the target HLA-A*29:02. Described as above. The settings on record: source organism: Streptococcus pneumoniae TIGR4.
A further assay has as its target HLA-B*39:01. The description is as above.
For assay [10], the target named is HLA-A*02:01. The description is as above. The settings on record: source organism: Streptococcus pneumoniae TIGR4.
Assay [11] deals with HLA-A*26:01. The description is as above. Conditions: source organism: Streptococcus pneumoniae TIGR4.
The next assay has as its target HLA-B*18:01. Described as above. The settings on record: source organism: Streptococcus pneumoniae TIGR4.
In assay [12] the target is HLA-A*69:01. The assay is described as above. The settings on record: source organism: Streptococcus pneumoniae TIGR4.
The target in the next assay is HLA-B*51:01. Described as above. Conditions: source organism: Streptococcus pneumoniae TIGR4.
For assay [13], the target named is HLA-B*15:01. The assay is described as above.
In another assay the target is HLA-B*46:01. Described as above. Conditions: source organism: Streptococcus pneumoniae TIGR4.
For a further assay, the target named is HLA-B*15:17. The description is as above. The settings on record: source organism: Streptococcus pneumoniae TIGR4.
Assay [14] has as its target HLA-A*24:03. Described as above. Conditions: source organism: Streptococcus pneumoniae TIGR4.
A further assay has as its target HLA-A*02:06. The description is as above. The settings on record: source organism: Human immunodeficiency virus 1.
A further assay concerns the target HLA-A*02:03. The assay is described as above. Conditions: source organism: Human immunodeficiency virus 1.
The next assay concerns the target HLA-A*30:01. Described as above. Conditions: source organism: Human immunodeficiency virus 1.
The target in assay [15] is HLA-A*01:01. The assay is described as above.
The target of assay [16] is HLA-B*15:01. Briefly: IEDB peptide-MHC binding, purified MHC/direct/fluorescence; filed as Kd, often an IC50 or EC50 that approximates it; ≥ and ≤ were set here for values at or beyond the usual limits of such assays.
Assay [17] addresses HLA-B*35:01. The assay is described as above.
Another assay concerns the target HLA-A*31:01. The description is as above.
In assay [18] the target is HLA-B*07:02. Kind of assay: IEDB peptide-MHC binding, purified MHC/competitive/fluorescence; ≥ and ≤ were set here for values at or beyond the usual limits of such assays. The settings on record: source organism: Zaire ebolavirus.
Where [19] appears, read: source organism: Francisella tularensis subsp. holarctica LVS.
[20] abbreviates: source organism: Vibrio cholerae.
[21] abbreviates: source organism: Vibrio parahaemolyticus.
Where [22] appears, read: source organism: Streptococcus pneumoniae TIGR4.
Where [23] appears, read: source organism: Human immunodeficiency virus 1.
The mark [24] stands for this setting: source organism: Haemophilus influenzae.
Setting [25] is: source organism: Escherichia coli.

Bounds are passed on as bounds.

Take AIYKNTIAY: the Kd with HLA-A*11:01 (setting [19]) was determined as 0.0239 µM; in the assay with HLA-A*03:01 [1] (setting [19]), 0.0069 µM; with HLA-C*14:02 (source organism: Francisella tularensis subsp. tularensis FSC198), 0.118 µM; with HLA-B*35:01 [2] it was 0.0986 µM.
Turning to AYYWNQNGF, the Kd is at least 20 µM in the assay with HLA-B*08:01 (setting [20]); at least 20 µM with HLA-A*11:01 (setting [21]); at least 20 µM with HLA-A*03:01 [1] (setting [20]); at most 0.001 µM with HLA-C*14:02 (source organism: Vibrio cholerae 2740-80); at least 20 µM with HLA-A*02:01 [3] (setting [20]); at least 20 µM with HLA-A*26:01 [4] (setting [20]). Also, the Kd with HLA-B*58:01 (setting [20]), with HLA-B*07:02 [5] (setting [20]), with HLA-A*69:01 [6] (setting [20]), with HLA-B*40:01 (setting [20]), with HLA-A*01:01 [7] (setting [20]) and with HLA-B*27:05 (setting [20]) was at least 20 µM each time. Also, the Kd is at least 20 µM in the assay with HLA-B*44:02 and 0.00223 µM with HLA-A*24:03 [8] (setting [21]).
Regarding CLSDEINHV, the dissociation constant (Kd) in the assay with HLA-A*23:01, with HLA-B*57:01, with HLA-B*27:03, with HLA-A*03:01 [9], with HLA-A*29:02 and with HLA-B*39:01 (setting [22]) was at least 20 µM each time. Further, the Kd is 0.0109 µM with HLA-A*02:01 [10]; at least 20 µM with HLA-A*26:01 [11]; at least 20 µM with HLA-B*18:01; at least 20 µM in the assay with HLA-A*69:01 [12]; at least 20 µM with HLA-B*51:01; at least 20 µM with HLA-B*15:01 [13] (setting [22]). The Kd with HLA-B*46:01, with HLA-B*15:17 and with HLA-A*24:03 [14] was at least 20 µM throughout.
In the case of EKLKSLFNTV, the Kd with HLA-A*02:06 is 0.343 µM; with HLA-B*39:01 (setting [23]), at least 20 µM; in the assay with HLA-A*02:03, at least 20 µM; with HLA-B*15:01 [13] (setting [23]), at least 20 µM; with HLA-A*30:01, 1.14 µM.
Regarding KSVFNSLY, the Kd with HLA-A*01:01 [15] (source organism: Influenza A virus (A/X-31(H3N2))) came out at 1.47 µM.
Regarding LAEQFSGEY, the Kd with HLA-B*08:01 (setting [24]), with HLA-A*11:01 (setting [24]), in the assay with HLA-A*03:01 [1] (setting [24]), with HLA-A*02:01 [3] (setting [24]), with HLA-A*26:01 [4] (setting [24]) and with HLA-B*58:01 (setting [24]) was at least 20 µM in each case. Further, the Kd is at least 20 µM with HLA-B*07:02 [5] (setting [24]); at least 20 µM with HLA-A*69:01 [6] (setting [24]); at least 20 µM in the assay with HLA-B*40:01 (setting [24]); 0.247 µM in the assay with HLA-A*01:01 [7] (setting [24]); 0.374 µM with HLA-B*15:01 [16] (setting [24]); 0.0167 µM with HLA-B*35:01 [17] (setting [24]). Further, the Kd with HLA-B*27:05 (setting [24]), with HLA-A*24:03 [8] (setting [24]) and with HLA-A*31:01 (setting [24]) was at least 20 µM each time.
LSTASSWSY: the Kd in the assay with HLA-A*01:01 [15] (source organism: Influenza A virus (A/swine/Ohio/24366/2007(H1N1))) was found to be 0.261 µM.
Take SHDTIGPYY: the Kd with HLA-B*08:01 (setting [25]), with HLA-A*11:01 (setting [25]), in the assay with HLA-A*03:01 [1] (setting [25]), in the assay with HLA-A*02:01 [3] (setting [25]), with HLA-A*26:01 [4] (setting [25]) and with HLA-B*58:01 (setting [25]) was at least 20 µM throughout. In addition, the Kd in the assay with HLA-B*07:02 [5] (setting [25]) was at least 20 µM; with HLA-A*69:01 [6] (setting [25]) it was at least 20 µM; with HLA-B*40:01 (setting [25]) it was 2.92 µM; with HLA-A*01:01 [7] (setting [25]), at least 20 µM; in the assay with HLA-B*15:01 [16] (setting [25]), at least 20 µM; with HLA-B*35:01 [17] (setting [25]), 4.76 µM. Further, the Kd with HLA-B*27:05 (setting [25]) and with HLA-A*31:01 (setting [25]) was at least 20 µM in each case.
The sequence SPQSLTTKP came in with an IC50 with HLA-B*07:02 [18] of at least 188 µM.
